Laboratory results as given in patent US7514408.

Molecular target: β-secretase (enzyme preparation not stated for the inhibitor assays) (human) (UniProt P56817)
Test: cell-based or functional assay

Sequence of β-secretase (enzyme preparation not stated for the inhibitor assays) (human) (P56817 46-501 limits assumed): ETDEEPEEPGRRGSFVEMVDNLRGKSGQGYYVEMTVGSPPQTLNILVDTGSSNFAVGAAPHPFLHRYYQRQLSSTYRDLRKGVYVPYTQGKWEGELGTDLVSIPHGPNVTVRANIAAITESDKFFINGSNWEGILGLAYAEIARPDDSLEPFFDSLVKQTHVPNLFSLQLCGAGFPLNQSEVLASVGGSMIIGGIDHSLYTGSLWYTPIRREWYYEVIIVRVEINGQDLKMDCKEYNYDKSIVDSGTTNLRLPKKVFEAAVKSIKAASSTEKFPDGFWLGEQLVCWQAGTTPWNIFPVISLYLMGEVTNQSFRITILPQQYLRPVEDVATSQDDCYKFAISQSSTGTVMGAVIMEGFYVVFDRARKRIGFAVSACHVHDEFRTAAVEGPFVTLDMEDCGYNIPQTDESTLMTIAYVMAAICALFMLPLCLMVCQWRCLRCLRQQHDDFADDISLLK

Substance: Swedish mutant P13-P5′ peptide with P1′ aspartic acid replaced with a valine (D→V) (from UniProt P05067 659-676)
- IC50 in an MBP M125 assay (inhibition of β-secretase activity): 3000 nM
- enzyme inhibition relative to the Swedish sequence: 100 times
